Reference: patent US20210171652A1 (University of Pennsylvania, published 2021)
Substitutions are numbered along the chain they refer to. Names may count otherwise.

T1: human RhCE protein (RHCE; Rh17/Hr0 epitope) on human red blood cells (human, UniProt P18577 2-417)
T1 construct: Target on intact human RBCs of donors
T1 chain: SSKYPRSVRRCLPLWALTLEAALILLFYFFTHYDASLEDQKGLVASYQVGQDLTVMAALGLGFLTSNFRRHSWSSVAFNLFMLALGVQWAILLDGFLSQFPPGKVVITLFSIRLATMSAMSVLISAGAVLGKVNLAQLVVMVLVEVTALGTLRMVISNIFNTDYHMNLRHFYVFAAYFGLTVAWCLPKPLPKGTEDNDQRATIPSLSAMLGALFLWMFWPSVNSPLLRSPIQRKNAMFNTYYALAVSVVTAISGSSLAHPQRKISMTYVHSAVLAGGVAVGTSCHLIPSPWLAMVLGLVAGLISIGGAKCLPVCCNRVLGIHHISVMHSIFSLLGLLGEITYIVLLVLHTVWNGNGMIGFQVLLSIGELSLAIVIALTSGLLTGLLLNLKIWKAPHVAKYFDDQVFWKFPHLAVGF

T2: Band 3 / glycophorin A (Wright b, Wrb epitope) on human red blood cells (human, UniProt P02724 20-150)
T2 construct: whole, on cells; also called Band3/GPA; AE1
T2 sequence 1: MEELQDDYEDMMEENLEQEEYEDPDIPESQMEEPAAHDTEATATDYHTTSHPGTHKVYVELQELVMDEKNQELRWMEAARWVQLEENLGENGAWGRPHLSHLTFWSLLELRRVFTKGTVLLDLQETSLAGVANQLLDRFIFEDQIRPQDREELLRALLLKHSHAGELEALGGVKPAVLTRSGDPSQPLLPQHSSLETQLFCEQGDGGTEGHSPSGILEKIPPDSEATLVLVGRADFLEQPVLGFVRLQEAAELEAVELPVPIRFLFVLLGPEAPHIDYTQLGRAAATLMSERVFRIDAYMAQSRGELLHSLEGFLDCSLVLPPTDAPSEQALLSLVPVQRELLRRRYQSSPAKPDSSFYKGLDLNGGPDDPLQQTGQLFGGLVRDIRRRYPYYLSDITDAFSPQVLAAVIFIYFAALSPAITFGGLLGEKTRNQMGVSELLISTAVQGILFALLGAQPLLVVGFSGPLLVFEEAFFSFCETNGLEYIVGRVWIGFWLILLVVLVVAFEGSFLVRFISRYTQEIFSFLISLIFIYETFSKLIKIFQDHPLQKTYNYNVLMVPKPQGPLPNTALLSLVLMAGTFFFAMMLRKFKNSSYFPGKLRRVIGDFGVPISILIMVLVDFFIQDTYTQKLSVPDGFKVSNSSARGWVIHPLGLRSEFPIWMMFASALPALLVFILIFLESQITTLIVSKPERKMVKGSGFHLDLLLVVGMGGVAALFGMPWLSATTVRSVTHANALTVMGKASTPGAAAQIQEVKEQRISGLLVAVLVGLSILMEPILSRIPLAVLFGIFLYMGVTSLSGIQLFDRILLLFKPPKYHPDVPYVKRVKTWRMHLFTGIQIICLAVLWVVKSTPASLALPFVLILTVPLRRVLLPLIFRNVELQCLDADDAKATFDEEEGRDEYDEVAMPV
T2 sequence 2: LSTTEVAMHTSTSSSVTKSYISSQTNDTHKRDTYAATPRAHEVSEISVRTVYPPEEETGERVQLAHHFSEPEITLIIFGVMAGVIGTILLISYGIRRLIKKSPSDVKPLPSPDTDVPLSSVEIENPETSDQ

B1: KP3-17 (anti-Rh17), as used in Example 8 (antibody, V domains shown)
VH: EVQLLESGPGLLKPSETLSLTCAVSGAPISNYWWSWIRQSPGKGLEWIGEIDGSIYTTYYNPSLKSRVAISKDTSKNRLSLKLTSVTAADTAVYYCAREGQNPLVPTYGSTGFGLDFWGHGLAVTVSS
VL: AAELTQSPSSLSASVGDRVTITCQASQGISSWLAWYQQKPGKAPKLLIYKASSLQSGVPSRFSGSGSGTDFTLTISSLQSEDFATYYCQQYSSSPRTFGQGTKVEIK
B2: KP3-17 Fab/phage clone (anti-RHCE, Rh17) (Fab, V domains shown)
VH: B1 VH
VL: B1 VL
B3: aRh17 scFv (anti-RhCE), clone KP3-17 (scFv)
scFv: EVQLLESGPGLLKPSETLSLTCAVSGAPISNYWWSWIRQSPGKGLEWIGEIDGSIYTTYYNPSLKSRVAISKDTSKNRLSLKLTSVTAADTAVYYCAREGQNPLVPTYGSTGFGLDFWGHGLAVTVSSGGGGSGGGGSGGGGSAAELTQSPSSLSASVGDRVTITCQASQGISSWLAWYQQKPGKAPKLLIYKASSLQSGVPSRFSGSGSGTDFTLTISSLQSEDFATYYCQQYSSSPRTFGQGTKVEIK
modifications: radio-iodinated (125I) or amine-labelled with AlexaFluor 488/647 in the binding assays; sites not stated
notes: scFv produced as H2N-VH-(GGGGS)3-VL-FLAGx3-COOH in E. coli periplasm (pBAD/gIII); Macaque-derived; also called anti-Rh17 scFv; aRHCE scFv; not shown: C-terminal FLAGx3 tag
B4: KP3-11 Fab/phage clone (anti-RHCE, Rh17) (Fab, V domains shown)
VH: EVQLLESGPGLVKPSETLSLTCGVSGASISNYWWSWIRQSPGKGLEWIGEIDGSTYSTHYNPSLKGRVTISKDASKNQLSLRLTSVTAADTAVYYCAREGQDPLAPTLATSGSGLDSWGRGLVVSVSS
VL: ELQMTQSPSSLSASLGDRVTITCRASENVNNYLHWYQQKPGKAPKLLIYAASTLQSGVPSRFSGSGSGTDFTLTISSLQPEDVATYYCQHSYGTPLTFGGGTKVEIK
B5: KP3-14 Fab/phage clone (anti-RHCE, Rh17) (Fab, V domains shown)
VH: B4 VH with V12G, S125T
VL: ELQMTQSPSALSASVGDRVTISCRASQDIYSNLAWYQQKPGKAPKLLIYGASRLQSGIPSRFSASGAGTEFTLTISGLQPEDSAVYYCQEVHRNPFTFGPGTKLDIK
B6: linear peptide corresponding to the 6th extracellular loop of human RhD (peptide, UniProt Q02161 346-360, looked up)
peptide: LLVLDTVGAGNGMIG
notes: domain: 6th extracellular loop; Negative control peptide; also called RhD peptide (negative control)
B7: aWrb scFv (anti-Band3/GPA), clone KP2-23 (scFv)
scFv: EVQLLESGPGLVKPSETLSLTCTVSGSSLSSAYGWNWIRQPPGKGLEWIGSIGGSRDNTNYNPSLKRRVTISKDTSKNQFSLKLKSVTAADTAVYYCAQRGAYGYSYFDYWGQGVLVAVSSGGGGSGGGGSGGGGSAAELTLTQSPATLSLSPGETATLSCRASQTVGRNLAWYQQRPGQAPNLLVHSAYFRATGIPDRFSGSGSGTDFTLTISSLEPEDAGVYHCQQYNDLLPLTFGGGTKVEIK
modifications: radio-iodinated (125I) or amine-labelled with AlexaFluor 488/647 in the binding assays; sites not stated
notes: scFv produced as H2N-VH-(GGGGS)3-VL-FLAGx3-COOH in E. coli periplasm; also called anti-Wrb scFv; KP2-23 scFv; not shown: C-terminal FLAGx3 tag

Assays:
[1] = biological target: T1, human RhCE protein (RHCE; Rh17/Hr0 …); assay: Western blot of reduced, denatured proteins from human erythrocyte ghosts
Protocol: (§1) A Western blot was performed to assess the binding of KP3-17 (anti-Rh17) to proteins extracted from mouse and human erythrocyte ghosts. Because proteins were denatured in reducing SDS-PAGE buffer prior to gel electrophoresis, the presence of binding is due to interaction with linear, and not conformational, epitopes. This is in contrast to anti-RhCE mAbs described by other groups, which recognize conformational epitopes.
as §1, with “Rh17” for “KP3-17 (anti-Rh17)”, “ghosts (FIG. 25).” for “ghosts.”

[2] = biological target: T1, human RhCE protein (RHCE; Rh17/Hr0 …); assay: Fab/phage binding assays on human RBCs incl. rare RBC types lacking conserved antigens
Protocol: An IgG Fab/phage display library was prepared from the peripheral blood lymphocytes of a hyperimmunized macaque using homologous human V-region oligonucleotides (Siegel D L, R. M., Lee H, Blancher A., Production of large repertories of macaque mAbs to human RBCs using phage display. Transfusion, 1999. 39(S10): p. 92S, which is incorporated herein by reference). Fab/phage specific for human RBCs were isolated by panning on intact human RBCs. Monoclonal Fab/phage were grown to produce antibodies for immunoassays and their corresponding DNA was extracted for sequencing. To identify target epitopes, antibodies were screened against RBCs of known serologic phenotypes, including rare cells lacking highly conserved antigens, using standard immunohematologic techniques (Roback, J. D., Technical Manual. 2014: American Association of Blood Banks (AABB), which is incorporated herein by reference.)
Using antibody phage display, we identified non-human-primate Fab antibody fragments to antigenic determinants on human RBCs. By panning phage libraries on human RBCs, we produced a Fab/phage preparation with >10⁷ RBC-specific clones capable of agglutinating human RBCs. By performing binding assays against rare RBC types lacking highly conserved antigens and epitopes, we identified the target antigens of >30 of these clones. At least 34 clones bound the Wright b (Wrb) epitope formed by a Band 3/GPA interaction, present on the RBCs of essentially 100% of the human population. The Wrb epitope, determined by the protein sequence of Band 3, is a site of association between Band 3 with GPA, and GPA expression is simultaneously required for its presence on the membrane (Huang C H, Reid M E, Xie S S, Blumenfeld 00. Human red blood cell Wright antigens: a genetic and evolutionary perspective on glycophorin A-band 3 interaction. Blood. 1996; 87(9):3942-3947). At least 3 other clones bound to a highly-conserved epitope Rh17(Hr0) on human RhCE protein, also present on essentially 100% of the human population. Both these targets are specific for erythroid lineage (Rojewski M T, Schrezenmeier H, Flegel W A. Tissue distribution of blood group membrane proteins beyond red cells: evidence from cDNA libraries. Transfus Apher Sci.

[3] = biological target: T1, human RhCE protein (RHCE; Rh17/Hr0 …); assay: dissociation of 125I-labelled protein from saturated human RBCs
Protocol: (§2) Recombinant proteins were radiolabeled with Na¹²⁵I (Perkin Elmer, Exton, Pa.) using pre-formulated iodination reagent (Pierce Iodination Reagent, Thermo Fisher Scientific, Carlsbad, Calif.) per the manufacturer's protocol. Radiochemical purity was verified by instant thin layer chromatography on silica and was typically >95%. Radiolabeled proteins were added to human RBCs at 0.02% hematocrit in PBS with 2% human AB serum. Binding was allowed to reach equilibrium over 4 hours at 37 degrees C. After binding, cell suspensions were rapidly washed at least four times with cold PBS. The resulting cell pellet was counted using a Perkin Elmer Wizard2 gamma counting system. Dissociation of the fusion proteins was assessed using RBCs saturated with radiolabeled proteins, washing unbound ligands, and placing in dilute suspensions prior to measurement of bound ligand at specified time points. Similar binding experiments were performed with fluorescently-labeled recombinant proteins and cells were analyzed by flow cytometry (Accuri C6, BD Biosciences, San Jose, Calif.). Fluorescently labeled proteins were produced by reaction with amine-reactive derivatives of fluorescent dyes AlexaFlour488 and AlexaFlour647 (typically 10- to 20-fold excess at pH 8) and purified using 10,000 MWCO centrifugal filter devices (EMD Milipore, Billerica, Mass.).

[4] = biological target: T1, human RhCE protein (RHCE; Rh17/Hr0 …); assay: direct binding of 125I-labelled protein to human RBCs, 4 h at 37 C
Protocol: as §2

[5] = biological target: B1; assay: peptide competition, flow cytometry on human erythrocytes; RhD loop peptide as negative control
Description: Flow cytometry was used to assess the binding of anti-Rh17 to human erythrocytes in the presence and absence of linear peptides corresponding to the amino acid sequence 6th extracellular loop of human RhD (negative control) and human RhCE. […] (* denotes p<0.05 by 1-way ANOVA with Tukey's post-hoc test).
Rh17 recognizes an epitope present in the 6th extracellular loop of human RhCE. Flow cytometry was used to assess the binding of Rh17 to human erythrocytes in the presence and absence of linear peptides corresponding to the amino acid sequence 6th extracellular loop of human RhD (negative control) and human RhCE (FIG. 26).

[6] = biological target: T2, Band 3 / glycophorin A (Wright b, Wrb …); assay: dissociation of 125I-labelled protein from saturated human RBCs
Protocol: as §2

[7] = biological target: T2, Band 3 / glycophorin A (Wright b, Wrb …); assay: direct binding of 125I-labelled protein to human RBCs, 4 h at 37 C
Protocol: as §2

B1
binding result [1]: binds

B2
binding result [2]: binds

B3
koff [3]: 2e-05 s⁻¹
Kd [4]: 41.4 nM

B4
binding result [2]: binds

B5
binding result [2]: binds

B6
binding result [5]: no binding

B7
koff [6]: 2.9e-05 s⁻¹
Kd [7]: 21.3 nM
